In experiment [1] the target is proprietary Ral effector protein of the RalA G-LISA Activation Assay Kit. In words: ELISA-based assay. The note with it: Absorbances normalized to a no template control (NTC); mean of one experiment performed in triplicate; parent: 1.163.
The target is the same in experiment [2]. In words: ELISA; RalA G-LISA Activation Assay Kit (colorimetric); Ral effector protein on the Ral-BP binding plate; purified RALA incubated in the presence or absence of 15 uM GTP for 1.5 h at 25 °C, then 23.75 ng of RALA/GTP mixture applied; absorbances normalized to a no template control; one experiment in triplicate.

Data on five molecules can be found in article PMC6291162.

Turning to “wild-type RALA (RAS-like small GTPase), 6-His-tagged recombinant protein (from UniProt P11233) D130G”, the response in experiment [1] turned out to be 0.281 absorbance.

Consider “wild-type RALA (RAS-like small GTPase), 6-His-tagged recombinant protein (from UniProt P11233) V25L”, for which the response in experiment [1] stood at 0.286 absorbance.

For “wild-type RALA (RAS-like small GTPase), 6-His-tagged recombinant protein (from UniProt P11233) S157A”, the response in experiment [1] was 1.83 absorbance.

As to “wild-type RALA (RAS-like small GTPase), 6-His-tagged recombinant protein (from UniProt P11233) V25M”, the response in experiment [1] stood at 0.649 absorbance.

B1: RALA G23D, 6-His-tagged recombinant protein (natural protein)
chain: MAANKPKGQNSLALHKVIMVGSDGVGKSALTLQFMYDEFVEDYEPTKADSYRKKVVLDGEEVQIDILDTAGQEDYAAIRDNYFRSGEGFLCVFSITEMESFAATADFREQILRVKEDENVPFLLVGNKSDLEDKRQVSVEEAKNRAEQWNVNYVETSAKTRANVDKVFFDLMREIRARKMEDSKEKNGKKKRKSLAKRIRERCCIL
Take B1: the fold change of binding against wild type in experiment [2] amounted to 2 fold.
